Consider seven molecules from patent US20220088075A1 (University of Pennsylvania, published 2022).

Experiment [1] deals with T1, wild type hEGFR (human EGFR wild type) on transiently transfected HEK293F cells (human, UniProt P00533 25-1210).
T1 construct: whole, on cells; also called wild type EGFR
The experiment can be described thus: FACS, purified His-tagged scFv on HEK293F cells transiently transfected with wild type hEGFR, anti-poly His PE. On the procedure: (§1) HEK293F suspension cells were transiently transfected with either wild type hEGFR or hEGFRvIII and were harvested 2 days after transfection. Approximately 5e5 cells/per well were transferred to a BD Falcon 96 well plate. The cells were spun down at 900 rpm (Sorval Legend XT centrifuge) for 3 minutes. The supernatant was removed. Anti-EGFRvIII scFv protein samples were diluted in DPBS with 5% FBS. The samples were added into the wells, mixed and incubated for 1 hour. The cells were washed twice in the DPBS with 5% FBS. The cells were incubated with anti-poly His PE (R&D) for 1 hour, washed twice before FACS analysis (LSRII from BD Biosciences).
For orientation: Flow cytometry measures light scatter and fluorescence of single cells or particles in a stream.

The target of experiment [2] is T2, hEGFRvIII (human epidermal growth factor receptor variant III) on transiently transfected HEK293F cells (human, UniProt P00533 25-1210).
T2 construct: whole, on cells; also called human EGFRvIII
The experiment can be described thus: FACS, purified His-tagged scFv on HEK293F cells transiently transfected with hEGFRvIII, anti-poly His PE. The method, then: as §1

Experiment [3] concerns the target T3, EGFRvIII-Fc fusion protein (UniProt P00533 25-645, limits assumed).
T3 construct: not shown: detected with PE anti-human IgG Fc
The experiment can be described thus: flow cytometry, Jurkat E6 cells electroporated with CAR vector, titrated EGFRvIII-Fc, PE anti-human IgG Fc. On the procedure:
Jurkat E6 cells were electroporated with either CAR9 vector or CAR10 vector using Amaxa Cell Line Nucleofector Kit V (Lonza, Colgne AG, Germany) and program X-001. One day after the transfection, 0.5×10⁶ cells were placed into each well of a V-shape 96 well plate (Greiner Bio-One, Germany) in 0.2 ml FACS buffer (DPBS buffer containing 5% FBS) and incubated for 10 minutes at room temperature. Cells were then spun down and resuspended in 0.2 ml of the FACS buffer with different concentrations of EGFRvIII-Fc or EGFRwt-Fc and incubated at 4° C. for 30 minutes. Cells were then washed with FACS buffer three times, and incubated with 0.2 ml of the FACS buffer with 2 μl of PE anti-human IgG Fc (Jackson ImmunoResearch Laboratories, West Grove, Pa.) for 30 minutes at 4° C. in the dark. After washing with 0.2 ml of FACS buffer three times, cells were analyzed on a LSRII (BD Biosciences, San Jose, Calif.) machine using the FACSDiva software (BD Biosciences, San Jose, Calif.). Immunofluorescence staining was analyzed as the relative log fluorescence of live cells, and the percentage of the PE positive cells were measured.

B1: CAR1 soluble scFv (humanized anti-EGFRvIII scFv, VH1-VK4) (scFv)
scFv: EIQLVQSGAEVKKPGATVKISCKGSGFNIEDYYIHWVQQAPGKGLEWMGRIDPENDETKYGPIFQGRVTITADTSTNTVYMELSSLRSEDTAVYYCAFRGGVYWGQGTTVTVSSGGGGSGGGGSGGGGSGGGGSDVVMTQSPDSLAVSLGERATINCKSSQSLLDSDGKTYLNWLQQKPGQPPKRLISLVSKLDSGVPDRFSGSGSGTDFTLTISSLQAEDVAVYYCWQGTHFPGTFGGGTKVEIKGSHHHHHHHH
notes: not tied in words; also called CAR1 scFv
B1: the binding result was “no binding” in experiment [1] and “binds” in experiment [2].

B2: CAR8 soluble scFv (humanized anti-EGFRvIII scFv, VK2-VH1) (scFv)
scFv: DVVMTQSPLSLPVTLGQPASISCKSSQSLLDSDGKTYLNWLQQRPGQSPRRLISLVSKLDSGVPDRFSGSGSGTDFTLKISRVEAEDVGVYYCWQGTHFPGTFGGGTKVEIKGGGGSGGGGSGGGGSGGGGSEIQLVQSGAEVKKPGATVKISCKGSGFNIEDYYIHWVQQAPGKGLEWMGRIDPENDETKYGPIFQGRVTITADTSTNTVYMELSSLRSEDTAVYYCAFRGGVYWGQGTTVTVSSGSHHHHHHHH
notes: also called CAR8 scFv
Turning to B2, the binding result in experiment [1] is “no binding”; in experiment [2], “binds”.

B3: CAR4 soluble scFv (humanized anti-EGFRvIII scFv, VK2-VH5) (scFv)
scFv: DVVMTQSPLSLPVTLGQPASISCKSSQSLLDSDGKTYLNWLQQRPGQSPRRLISLVSKLDSGVPDRFSGSGSGTDFTLKISRVEAEDVGVYYCWQGTHFPGTFGGGTKVEIKGGGGSGGGGSGGGGSGGGGSEIQLVQSGAEVKKPGESLRISCKGSGFNIEDYYIHWVRQMPGKGLEWMGRIDPENDETKYGPIFQGHVTISADTSINTVYLQWSSLKASDTAMYYCAFRGGVYWGQGTTVTVSSGSHHHHHHHH
notes: also called CAR4 scFv
In the case of B3, the figures for the binding result in experiment [1] and in experiment [2] were “no binding” and “binds”, respectively.

B4: CAR5 soluble scFv (humanized anti-EGFRvIII scFv, VH1-VK2) (scFv)
scFv: EIQLVQSGAEVKKPGATVKISCKGSGFNIEDYYIHWVQQAPGKGLEWMGRIDPENDETKYGPIFQGRVTITADTSTNTVYMELSSLRSEDTAVYYCAFRGGVYWGQGTTVTVSSGGGGSGGGGSGGGGSGGGGSDVVMTQSPLSLPVTLGQPASISCKSSQSLLDSDGKTYLNWLQQRPGQSPRRLISLVSKLDSGVPDRFSGSGSGTDFTLKISRVEAEDVGVYYCWQGTHFPGTFGGGTKVEIKGSHHHHHHHH
notes: also called CAR5 scFv
For the molecule B4, the binding result was “no binding” in experiment [1] and “binds” in experiment [2].

B5: CAR3 soluble scFv (humanized anti-EGFRvIII scFv, VH5-VK2) (scFv)
scFv: EIQLVQSGAEVKKPGESLRISCKGSGFNIEDYYIHWVRQMPGKGLEWMGRIDPENDETKYGPIFQGHVTISADTSINTVYLQWSSLKASDTAMYYCAFRGGVYWGQGTTVTVSSGGGGSGGGGSGGGGSGGGGSDVVMTQSPLSLPVTLGQPASISCKSSQSLLDSDGKTYLNWLQQRPGQSPRRLISLVSKLDSGVPDRFSGSGSGTDFTLKISRVEAEDVGVYYCWQGTHFPGTFGGGTKVEIKGSHHHHHHHH
notes: also called CAR3 scFv
In the case of B5, the results for the binding result in experiment [1] and in experiment [2] were “no binding” and “binds”, respectively.

B6: CAR2 soluble scFv (humanized anti-EGFRvIII scFv, VK4-VH1) (scFv)
scFv: DVVMTQSPDSLAVSLGERATINCKSSQSLLDSDGKTYLNWLQQKPGQPPKRLISLVSKLDSGVPDRFSGSGSGTDFTLTISSLQAEDVAVYYCWQGTHFPGTFGGGTKVEIKGGGGSGGGGSGGGGSGGGGSEIQLVQSGAEVKKPGATVKISCKGSGFNIEDYYIHWVQQAPGKGLEWMGRIDPENDETKYGPIFQGRVTITADTSTNTVYMELSSLRSEDTAVYYCAFRGGVYWGQGTTVTVSSGSHHHHHHHH
notes: also called CAR2 scFv
In the case of B6, the binding result in experiment [1] is given as “no binding”; in experiment [2] it was “binds”.

B7: CAR10 (chimeric antigen receptor with anti-EGFRvIII clone 139 scFv), expressed on Jurkat E6 cells or primary human T cells (other)
chain: DIQMTQSPSSLSASVGDRVTITCRASQGIRNNLAWYQQKPGKAPKRLIYAASNLQSGVPSRFTGSGSGTEFTLIVSSLQPEDFATYYCLQHHSYPLTSGGGTKVEIKRTGSTSGSGKPGSGEGSEVQVLESGGGLVQPGGSLRLSCAASGFTFSSYAMSWVRQAPGKGLEWVSAISGSGGSTNYADSVKGRFTISRDNSKNTLYLQMNSLRAEDTAVYYCAGSSGWSEYWGQGTLVTVSSTTTPAPRPPTPAPTIASQPLSLRPEACRPAAGGAVHTRGLDFACDIYIWAPLAGTCGVLLLSLVITLYCKRGRKKLLYIFKQPFMRPVQTTQEEDGCSCRFPEEEEGGCELRVKFSRSADAPAYKQGQNQLYNELNLGRREEYDVLDKRRGRDPEMGGKPRRKNPQEGLYNELQKDKMAEAYSEIGMKGERRRGKGHDGLYQGLSTATKDTYDALHMQALPPR
As for B7, the “fold lower binding compared to CAR9” value in experiment [3] was roughly 40 fold.
